Laboratory results from paper PMC4569318 (Molecular Biology of the Cell, 2015).
Changes are numbered by the printed parent chain.

T1: Sro7-D361K (S. cerevisiae, UniProt Q12038 1-1033, D361K)
T1 sequence: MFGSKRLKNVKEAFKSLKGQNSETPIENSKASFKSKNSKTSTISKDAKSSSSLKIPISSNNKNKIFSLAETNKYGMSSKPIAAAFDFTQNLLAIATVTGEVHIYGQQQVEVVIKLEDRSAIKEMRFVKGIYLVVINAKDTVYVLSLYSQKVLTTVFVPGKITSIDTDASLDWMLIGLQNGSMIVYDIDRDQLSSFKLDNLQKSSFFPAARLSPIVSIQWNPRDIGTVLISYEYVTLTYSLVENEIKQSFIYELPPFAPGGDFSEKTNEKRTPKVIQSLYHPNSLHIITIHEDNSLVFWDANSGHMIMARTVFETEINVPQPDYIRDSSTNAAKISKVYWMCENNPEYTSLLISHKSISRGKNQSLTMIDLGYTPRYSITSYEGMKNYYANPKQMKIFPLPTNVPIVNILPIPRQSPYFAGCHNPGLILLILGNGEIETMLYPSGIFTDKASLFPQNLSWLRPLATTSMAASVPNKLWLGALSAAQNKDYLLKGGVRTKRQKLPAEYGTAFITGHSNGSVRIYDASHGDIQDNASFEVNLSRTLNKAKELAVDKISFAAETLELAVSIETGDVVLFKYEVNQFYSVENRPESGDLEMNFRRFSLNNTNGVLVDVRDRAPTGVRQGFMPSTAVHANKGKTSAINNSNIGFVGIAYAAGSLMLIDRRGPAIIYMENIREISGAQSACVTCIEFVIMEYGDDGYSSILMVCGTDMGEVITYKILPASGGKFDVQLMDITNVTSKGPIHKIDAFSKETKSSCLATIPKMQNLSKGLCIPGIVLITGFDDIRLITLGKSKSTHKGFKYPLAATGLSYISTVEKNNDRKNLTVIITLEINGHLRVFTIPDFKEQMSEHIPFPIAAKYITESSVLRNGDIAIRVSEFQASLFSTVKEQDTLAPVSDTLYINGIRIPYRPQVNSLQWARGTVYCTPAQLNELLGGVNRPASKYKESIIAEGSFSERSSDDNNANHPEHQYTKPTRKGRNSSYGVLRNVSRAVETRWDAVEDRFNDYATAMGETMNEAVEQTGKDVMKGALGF

T2: Sro7 (wild type, full length) (S. cerevisiae, UniProt Q12038 1-1033)
T2 sequence: T1 sequence with K361D

B1: GST-Sec4 (wild type) (natural protein)
chain: MSGLRTVSASSGNGKSYDSIMKILLIGDSGVGKSCLLVRFVEDKFNPSFITTIGIDFKIKTVDINGKKVKLQLWDTAGQERFRTITTAYYRGAMGIILVYDVTDERTFTNIKQWFKTVNEHANDEAQLLLVGNKSDMETRVVTADQGEALAKELGIPFIESSAKNDDNVNEIFFTLAKLIQEKIDSNKLVGVGNGKEGNISINSGSGNSSKSNCC
B2: GST-Sec9 (full length) (natural protein)
chain: MGLKKFFKIKPPEEATPEQNKDTLMELGISVKNPSKKRKEKFAAYGKFANDKAEDKVYAPPGYEQYARPQDELEDLNASPLDANANEATAGSNRGSSGTQDLGNGAESNSMQDPYAIENDDYRYDDDPYARFQANKSNGRGSVNAAPYGDYGGGYNGTSLNSYNNDGPYSNQNTSNSWVNANGRNSLNHSNSTLNVGPSRQTRQPPVSTSTNSLSLDQRSPLANPMQEKRNPYADMNSYGGAYDSNTNRSSGTRQGSSKNANPYASMANDSYSNGNLNRSANPYSSRSVRQPQSQQAPMTYTPSFIASDEAARNSEVDLNEEPRTGEFDFEEVYADKSAENRAALDEPDLNAVMTNEDSIDLNASEVDHSSRQQQQQQWFMDEQQQQQQHFNATNNQYGDQRGYKTFEEIQKEEEARQQQEEDEAVDEIKQEIKFTKQSSVASTRNTLKMAQDAERAGMNTLGMLGHQSEQLNNVEGNLDLMKVQNKVADEKVAELKKLNRSILAVHVSNPFNSKRRRREREEQLKNRKIEEKLMREQTSQQLSQSTQRIEGAMNANNNISEVRERYQRKNVLEKAKRYQFENDEEDDEMELEIDRNLDQIQQVSNRLKKMALTTGKELDSQQKRLNNIEESTDDLDINLHMNTNRLAGIR

Key:
[1] = target: T1, Sro7-D361K; assay: pull-down
[2] = target: T2, Sro7 (wild type, full length); assay: pull-down

Binder | binding result [1] | binding result [2]
B1 | binds | binds
B2 |  | binds
